Here are results for 1 sequence from patent publication US20170335314.

This data set concerns biotinylated anti-BRD7 Fab fragment (murine IgG1 isotype; bFab) (Mus musculus). In words: pulldown. The note with it: streptavidin bead capture with QPCR readout; PBSM (PBS with 1 mM MgCl2), overnight.

The term Kd denotes the equilibrium constant for the complex coming apart. A low value points to a tighter complex. Consider “GCAAAGACATCTGGACACGCCACTAAGTGGAGGTGATCTGTACTTCATTTATGAGATCGCGGCGAGGAGAAGGAGACTTAGAGGC [aptamer 228 (10AptR1)]”, for which the Kd was found to be 11 nM. This counts as double-digit nanomolar.
